{"source": "paper PMC6154995", "about": "“Heme-dependent Inactivation of 5-Aminolevulinate Synthase from Caulobacter crescentus” (Scientific Reports, 2018)", "test_system": "CC(C)(COP(=O)(O)OP(=O)(O)OC[C@H]1O[C@@H](n2cnc3c(N)ncnc32)[C@H](O)[C@@H]1OP(=O)(O)O)[C@@H](O)C(=O)NCCC(=O)NCCSC(=O)CCC(=O)O", "assay": "purified protein", "details": "PLP", "data": [{"substance": "5-aminolevulinate synthase (cALAS) (Caulobacter vibrioides CB15)", "values": [{"measurement": "Km", "result": "2.42 ± 0.32", "unit": "µM"}]}]}
